B1: recombinant caltrin (mouse, V5/His-tagged, secreted from baculovirus-infected Sf-9 cells) (ligand, not shown: small tags and cut ends)
chain: LICNSCEKSRDSRCTMPQSRCVAKPGESCSTVSHFVGTKHVYSKQMCSPQCKEKQLNTGKKLIYIMCCEKNLCNSF
B2: ^125I-caltrin (radiolabelled recombinant caltrin) (ligand, not shown: small tags and cut ends)
chain: LICNSCEKSRDSRCTMPQSRCVAKPGESCSTVSHFVGTKHVYSKQMCSPQCKEKQLNTGKKLIYIMCCEKNLCNSF
modifications: 125I label by the lactoperoxidase method; labelled residues not stated

How the values were obtained:
[1] = target: unidentified caltrin receptor on primary mouse calvarial osteoblasts (mouse); experiment: competition curve: unlabelled caltrin against 10 ng 125I-caltrin on primary calvarial osteoblasts, 4 C, 2 h
[2] = target: unidentified caltrin binding site on ST2 osteoblast-like cells; experiment: FACS-based binding, anti-caltrin and labelled anti-rabbit antibody
[3] = target: unidentified caltrin binding site on COS-7 monkey kidney cells (monkey); experiment: as above
[4] = target: unidentified caltrin receptor on primary mouse calvarial osteoblasts (mouse); experiment: saturation binding of 125I-caltrin on 2×10^5 primary mouse calvarial osteoblasts, Scatchard analysis

Row | Binder | Kd [1] [nM] | binding sites per cell (Bmax) (binding sites per cell) [1] | shift in the mean fluorescence [2] [%] | shift in the mean fluorescence [3] [%] | Kd [4] [nM] | binding sites per cell (binding sites per cell) [4]
1 | B1 | 2.2 | 14000 | 75 | 80 | – | –
2 | B2 | – | – | – | – | 1.2 | 60000

— US20080119406A1
